Values belong to the molecule of their own block, whether it stands above or below them.
B1: zebrafish Jamb ectodomain (extracellular IgSF domains) fused to rat Cd4 domains 3 and 4 (domain or fragment, UniProt A0A0R4IGV4 19-226, looked up)
chain: VTVSSRNPKVEVHEFSDAELSCEFKTEKDTNPRIEWKRKDKEKDVSFVYYGERFVGPFQDRADIEGATVRLRRVTQADAGEYRCEVSAPSDSISLGETNVTLRVLVPPQTPSCDVPSSALTGSQVELRCRDRHSIPPAVYTWYKDNRALPIRHPNATYTVNEFTGVLIPQSHYNPGTVCQHCMYHPNYHIPNTQLTTTFQTHDLNVAA
notes: Jamb (official symbol jam2a), zebrafish orthologue of JAM-B; extracellular IgSF domains; Stood both as analyte and as ligand (6H and bio forms); also called Jam2a; JAM-B orthologue; source: mammalian expression system, purified; analyte resolved by gel filtration immediately before use; not shown: rat Cd4 domains 3 and 4, C-terminal, kept
B2: zebrafish Jamc ectodomain (extracellular IgSF domains) fused to rat Cd4 domains 3 and 4 (domain or fragment, UniProt A3KPA0 24-235, looked up)
chain: VLLKSTNSKPWVNEFESIELSCMIESITTTKPRIEWKKIKNGDPSYVYFDNQISGDLERRAKIREPATLVILNATRSDSADYRCEVTAPNDQKSFDEILISLTVRVKPVVPRCSVPKSIPVGKPAELHCLEDEGYPKSQYQWFRNKEEIPLDPKSSPKFFNSTYTLDGEMGTLKFSAVRKEDAGEYYCRAKNEAGISECGPQMMEVYDINIA
notes: Jamc (official symbol jam3b), zebrafish orthologue of JAM-C; extracellular IgSF domains; Stood both as analyte and as ligand (6H and bio forms); also called Jam3b; JAM-C orthologue; source: mammalian expression system, purified; analyte resolved by gel filtration immediately before use; not shown: rat Cd4 domains 3 and 4, C-terminal, kept

What was measured:
Experiment in all cases: SPR; systematic all-against-all screen of the six ectodomains, each as analyte and as ligand; dissociation phase of three concentrations of purified analyte averaged and fitted to a first-order decay curve; t1/2 = ln 2/kd; 28°C; half-lives in the text are the average of both orientations; t1/2 <=0.1 s not quantifiable (10 Hz instrument)
[1] = biological target: zebrafish Jamc ectodomain (extracellular IgSF domains) fused to rat Cd4 domains 3 and 4 (zebrafish) (UniProt A3KPA0)
[2] = biological target: zebrafish Jamc2 ectodomain (extracellular IgSF domains) fused to rat Cd4 domains 3 and 4 (zebrafish)
[3] = biological target: B2; conditions: both partners purified
[4] = biological target: the molecule itself

t1/2 (half-life of the complex) [1]: 0.26 s
Molecule: zebrafish Jamb2 ectodomain (extracellular IgSF domains) fused to rat Cd4 domains 3 and 4 (from UniProt B0V233 1-306) (domain or fragment)

t1/2 (half-life of the complex) [2]: 7 s
Molecule: zebrafish Jamb ectodomain (extracellular IgSF domains) fused to rat Cd4 domains 3 and 4 (from UniProt A0A0R4IGV4 19-226) (domain or fragment)

t1/2 (half-life of the complex) [2]: 0.11 s
Molecule: zebrafish Jamc2 ectodomain (extracellular IgSF domains) fused to rat Cd4 domains 3 and 4 (from UniProt A0ACD6B6E9 1-301) (domain or fragment)

Molecule: B1
t1/2 (half-life of the complex) [3]: ~1.63 s

Molecule: B2
t1/2 (half-life of the complex) [4]: 0.67 s
